In the DeepSol protein solubility set:

Assay: soluble on expression in E. coli; label from the status in PepcDB or PDB records

Row | Sequence | soluble on expression in E. coli
1 | MGSDKIHHHHHHMIDIKNTLLLGHRGARGEALENTLSGFEYAQNLQLSGLAGVEFDVQLSRDGQLVVFHDDTLERMCAQQSRLDQLNVSEIQRHRQFGQPIITLLDIASALNTYTYIELEVKTHSRTDYAKLVKALMHDLIDSSLASLPIVLTSFDVALHARLQRSTLLRHIPRGLLIREPELLKQAPNTALQLGCGQLGIHYPLLNHKVIQCCHQYDLPVSAWTVNDIETIKQLIDWQVDVIITDYPSYLLLP | not soluble
2 | MGSDKIHHHHHHMPHHQYVLTLSCPDRAGIVSAVSTFLFENGQNILDAQQYNDTESGHFFMRVVFNAAAKVIPLASLRTGFGVIAAKFTMGWHMRDRETRRKVMLLVSQSDHCLADILYRWRVGDLHMIPTAIVSNHPRETFSGFDFGDIPFYHFPVNKDTRRQQEAAITALIAQTHTDLVVLARYMQILSDEMSARLAGRCINIHHSFLPGFKGAKPYHQAFDRGVKLIGATAHYVTSALDEGPIIDQDVERISHRDTPADLVRKGRDIERRVLSRALHYHLDDRVILNGRKTVVFTD | not soluble
3 | MSLTWKHYLSAWQNADLSNEWRRELQRVEEEQERFDGYLTFGTGGMRGKMGIGTKRINLFTIRRVAKGLGDYVVANEGAEMGVAIAFDSRHHSGAFAQETAKVLAAQGINVYLSDSIRPTPALSFCVREKGAFAGVVITASHNPSIYNGFKVYDKNGCQITLGVAQEIAGYLEKITDIFTIPVRELPNPLVTPLGKEMDDAYLNALTAVVSRPDLLADYGNELRICYTPLHGAGKELVMRGLLENGFSETTIIAEQSEPDGDFPTVISPNPEEENSFDLAKKLAKEIQADIILATDPDADRLGVAVLNKQATYQILTGNQLGALLLNYILEAKTPVTGADTMINTIVTGDLGGKIAYDFGINHIQTLTGFKFIGEKIAEMEGTEKNFLFGYEESYGYLIAPFVRDKDAVQAALLTAEMALFYKKEGTTLLGKLTNLFEKFGYHKEYLHTITLDDSDGITKMIQVIDALRKEPIFMPEITVVEDFLTSKRTNFVTMEVTNIELPKENVLKFYLMDSSWFAIRPSGTEPKCKIYFQTSGETEEIATKAMNELRKRVLAVWDEGHHHHHH | soluble
4 | GKQNTSAIEALAPHSVVFTTAGGSSPEFTSSEISEQQAERWKDSTPLGVSQTRIESDQNANTTAVMGLPEGTPLPDSVGGFIEQGALLPAELADFLHVRA | not soluble
5 | MKLHEHQAKEIFAKYGIPVPEGKVAFSLKEAKEVAEELGEFPLVVKAQIHCGGRGKAGGVKIVKDMDELEKAVESLLGKVLKTFQCPDGKPVNRVLIEKATNIDKEYYLAITLDRSKSKPVIMASAAGGMEIEEIVKENPEAIIIETIDPELGLMPYQARELAFKLNLPVKEFASIALKLYQIYSDLDASLVEINPLVLTKEGNLIALDAKLDIDDNALFRHKDLEEMEDETQLPQLEVEAKKYGLNYIKLNGNIGCMVNGAGLAMATMDIIKLAGGEPANFLDVGGGANVEQIANAFRILMADPDVKAVFINIFGGILRVDRLAQGLIEASKMVELRVPIVARLEGTNVEEGKRMLQESGLNFIIAEDMWDGAKKAVEIANKQS | soluble
6 | MGSDKIHHHHHHMIENLNGIHETVKYKEYSNVKLFINAEAEDYPIHWHTPMEIIMPLEGGYTVQIGDDLVHLNENDIIFIASGVKHRLIAPDTGKRLILQIEWSAVSKIKELNSILTLIAPAITLTPETSGDIHSNIRKLLLDISNEYQTDSFLSEAVIYSKILEVLVLIGRHHTASSCHFNVGRHKQQEYLERFLSICEYIDTHCTEDITLDEIAKIAGFSKYHFTRLFKQFTNNTFYKYLNQKRIELALTLLADPNISVTETAMQSGFANPSTFIRVFKTEKGCTPTEFRKMFIG | not soluble
7 | MPLSPILRQILQQLAAQLQFRPDMDVKTVREQFEKSSLILVKMANEPIHRVEDITIPGRGGPIRARVYRPRDGERLPAVVYYHGGGFVLGSVETHDHVCRRLANLSGAVVVSVDYRLAPEHKFPAAVEDAYDAAKWVADNYDKLGVDNGKIAVAGDSAGGNLAAVTAIMARDRGESFVKYQVLIYPAVNLTGSPTVSRVEYSGPEYVILTADLMAWFGRQYFSKPQDALSPYASPIFADLSNLPPALVITAEYDPLRDEGELYAHLLKTRGVRAVAVRYNGVIHGFVNFYPILEEGREAVSQIAASIKSMAVA | soluble
8 | MRLKKLPIRRKMPMELAYIEKLFREEVGLDIKEHKDKAEQISETVVEIYEELLRKGIENANYNGRDYVSYYDLPITEDLERYMNRFIQDRGEEVLKAFVDYLAKLEEELLKAEEALPPLDEELHQKKADILGGIMLMFASVAKQINGDRKLYAESIPVTREVLRTMI | not soluble
9 | MPSYTVTVATGSQWFAGTDDYIYLSLVGSAGCSEKHLLDKPFYNDFERGAVDSYDVTVDEELGEIQLVRIEKRKYWLNDDWYLKYITLKTPHGDYIEFPCYRWITGDVEVVLRDGRAKLARDDQIHILKQHRLKELETRQKQYRWMEWNPGFPLSIDAKCHKDLPRDIQFDSEKGVDFVLNYSKAMENLFINRFMHMFQSSWNDFADFEKIFVKISNTISERVMNHWQEDLMFGYQFLNGCNPVLIRRCTELPEKLPVTTEMVECSLERQLSLEQEVQQGNIFIVDFELLDGIDANKTDPCTLQFLAAPICLLYKNLANKIVPIAIQLNQIPGDENPIFLPSDAKYDWLLAKIWVRSSDFHVHQTITHLLRTHLVSEVFGIAMYRQLPAVHPIFKLLVAHVRFTIAINTKAREQLICECGLFDKANATGGGGHVQMVQRAMKDLTYASLCFPEAIKARGMESKEDIPYYFYRDDGLLVWEAIRTFTAEVVDIYYEGDQVVEEDPELQDFVNDVYVYGMRGRKSSGFPKSVKSREQLSEYLTVVIFTASAQHAAVNFGQYDWCSWIPNAPPTMRAPPPTAKGVVTIEQIVDTLPDRGRSCWHLGAVWALSQFQENELFLGMYPEEHFIEKPVKEAMARFRKNLEAIVSVIAERNKKKQLPYYYLSPDRIPNSVAI | soluble
10 | MGHHHHHHSHGESEDVTQFLQSHKKTLTNEKLFLMDGKRTWFLEMESTPGEDAMNTVKMTTKDLKYDRSLIDKAGFERTDSNFERSHTVGKMLSNSIMCYRDIFYERESQLMQQTSLLSYEIAIATPTFSNYYPDWSAPINIVARPSTSKKIMTC | not soluble
11 | MRGRWPYEEKPLIVFWESTKACLLACKHCRAEALTEPQPGELSTREALALVDQVVEFGRPYPILVITGGDPLMRRDFWRILEYAVSQGLRVAVAPSVTPLLTREVVRRMARMGVARISISIDSGLPEVHDAIRGVPGTFKASVNIVREALAAGLPVQINTTVMKPTVDSLPETLKLLLDLGVDVWEVFYVVPTGRAARILDLTPSEWEDVSNYLYDASRYGVLVRTVEGPMFRRIALTRRLLENMGLDWRNR | not soluble
12 | MRVLVTGGSGYIGSHTCVQLLQNGHDVIILDNLCNSKRSVLPVIERLGGKHPTFVEGDIRNEALMTEILHDHAIDTVIHFAGLKAVGESVQKPLEYYDNNVNGTLRLISAMRAANVKNFIFSSAATVYGDNPKIPYVESFPTGTPQSPYGKSKLMVEQILTDLQKAQPDWSIALLRYFNPVGAHPSGDMGEDPQGIPNNLMPYIAQVAVGRRDSLAIFGNDYPTEDGTGVRDYIHVMDLADGHVVAMEKLANKPGVHIYNLGAGVGNSVLDVVNAFSKACGKPVNYHFAPRREGDLPAYWADASKADRELNWRVTRTLDEMAQDTWHWQSRHPQGYPD | soluble
13 | MSLSDLITLAQLSQGYRYNSDSLILADFILKQGIKGAVFDVGAGCGIIGILLKKNIANLSLSLIDIQKENIELIEKNLKSNKIQGDIFHDDFNQFQIIKKFDFIVCNPPFYRQGAYKSEDQHKAISKFQEFLPLHSFLAKTNSMLKPNGTLYFCYEALALDEICFILKDMKMKITKLCFVHTHQSKKARLVLIQVKKGSKSPCEILPPFFVYENEILSKQMQEIHLRFRLKSYDEGHHHHHH | soluble
